According to patent US20090188010A1 (HEXIMA, published 2009):

Target: T1, NaPI-insensitive chymotrypsin from H. punctigera (HpCh5), native enzyme from the larval gut (Helicoverpa punctigera)
T1 construct: also called NaPI-insensitive protease; Rech1a
Assay: affinity column of immobilized recombinant C1, trypsin-depleted gut extract passed through
Experimental: The midgut was dissected from 80 fourth instar larvae and buffer soluble extracts were prepared. The gut extract was depleted of trypsins by repeated passage through a benzamidine-Sepharose affinity column. […] This column was expected to specifically bind NaPI-sensitive chymotrysins.
The filtered gut extract was passed through the benzamidine column five times to remove the trypsins.

T1 sequence (chain, as listed by the source limits assumed): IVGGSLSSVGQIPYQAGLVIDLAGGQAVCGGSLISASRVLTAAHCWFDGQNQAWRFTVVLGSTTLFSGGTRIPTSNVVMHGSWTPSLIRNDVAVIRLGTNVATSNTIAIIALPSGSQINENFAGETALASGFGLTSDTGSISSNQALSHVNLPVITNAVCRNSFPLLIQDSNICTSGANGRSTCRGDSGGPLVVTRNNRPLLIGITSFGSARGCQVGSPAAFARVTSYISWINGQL

B1: recombinant C1 inhibitor with N-terminal hexahistidine tag, expressed in E. coli (other)
chain: DRICTNCCAGTKGCKYFSDDGTFVCEGESDPRNPKACTLNCDPRIAYGVCPRSEEKKN
notes: also called 6H.C1; not shown: hexahistidine tag at the N-terminus from the pQE-30 vector
binding result: no binding
